Here are results for two substances from patent publication US6562788B1, “Topoisomerase II inhibitor” (Laboratoire L. Lafon, priority 1998, dated 2003).

For one assay, the system named is topoisomerase II. Particulars: prior art, literature; cited from earlier work.
The target in assay [1] is T1, human topoisomerase II alpha (Homo sapiens, UniProt P11388). Put plainly: relaxation of supercoiled plasmids, topoisomerase II activity assay. It counts as biochemical. The settings on record: peptide concentration of 0.5 μM. An excerpt:
(§1) Two enzymatic assays make it possible to estimate the effect of the pentides on topoisomerase II activity: relaxation of supercoiled plasmids and decatenation of kinetoplast DNA (Wang, J. C., An. Rev. Biochem., 54: 665-697, 1985; Maxwell, A., Advances in Protein Chemistry, 38: 69-107, 1986; Liu, L. F., Cell, 19: 697-707, 1980).

Assay [2] concerns the target T2, topoisomerase II of yeast (Saccharomyces cerevisiae, UniProt P06786).
T2 sequence (P06786 1-1428): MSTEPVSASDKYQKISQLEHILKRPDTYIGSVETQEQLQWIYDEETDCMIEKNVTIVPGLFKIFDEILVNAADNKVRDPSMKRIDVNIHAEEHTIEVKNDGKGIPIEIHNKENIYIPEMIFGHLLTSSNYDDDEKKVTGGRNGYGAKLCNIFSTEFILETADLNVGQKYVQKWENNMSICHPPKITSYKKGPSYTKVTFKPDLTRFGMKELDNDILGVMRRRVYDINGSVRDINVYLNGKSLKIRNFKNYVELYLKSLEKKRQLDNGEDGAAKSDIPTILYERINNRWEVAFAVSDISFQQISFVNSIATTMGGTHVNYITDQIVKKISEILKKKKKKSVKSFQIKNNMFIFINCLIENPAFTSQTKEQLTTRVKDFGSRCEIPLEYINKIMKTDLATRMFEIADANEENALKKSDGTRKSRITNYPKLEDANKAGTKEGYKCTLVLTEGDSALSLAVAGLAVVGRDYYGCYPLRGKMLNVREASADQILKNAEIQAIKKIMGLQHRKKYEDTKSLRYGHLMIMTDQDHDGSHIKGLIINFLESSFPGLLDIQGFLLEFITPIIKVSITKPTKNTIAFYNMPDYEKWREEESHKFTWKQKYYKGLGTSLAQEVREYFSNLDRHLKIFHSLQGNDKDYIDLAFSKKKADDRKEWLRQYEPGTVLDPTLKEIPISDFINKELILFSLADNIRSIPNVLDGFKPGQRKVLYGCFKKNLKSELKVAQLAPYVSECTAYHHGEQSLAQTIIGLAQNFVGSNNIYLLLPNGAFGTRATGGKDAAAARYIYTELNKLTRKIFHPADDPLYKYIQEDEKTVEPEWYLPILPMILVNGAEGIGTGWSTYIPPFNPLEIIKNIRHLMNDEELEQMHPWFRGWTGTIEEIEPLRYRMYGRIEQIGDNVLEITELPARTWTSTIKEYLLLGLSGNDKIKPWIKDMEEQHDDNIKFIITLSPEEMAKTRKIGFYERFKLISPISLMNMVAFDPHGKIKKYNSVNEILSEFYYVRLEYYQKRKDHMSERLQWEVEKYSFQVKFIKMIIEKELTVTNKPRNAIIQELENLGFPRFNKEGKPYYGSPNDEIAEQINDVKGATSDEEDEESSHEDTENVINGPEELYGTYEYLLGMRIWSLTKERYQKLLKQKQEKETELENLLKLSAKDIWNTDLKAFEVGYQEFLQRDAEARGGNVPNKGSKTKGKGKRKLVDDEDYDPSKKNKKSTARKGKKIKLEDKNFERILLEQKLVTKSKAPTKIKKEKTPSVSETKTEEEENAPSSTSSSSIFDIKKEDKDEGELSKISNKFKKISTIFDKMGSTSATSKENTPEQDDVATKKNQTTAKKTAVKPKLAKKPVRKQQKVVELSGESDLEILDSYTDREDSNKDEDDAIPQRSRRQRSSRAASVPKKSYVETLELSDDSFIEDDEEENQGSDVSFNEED
Described as above. Type of assay: biochemical. The settings on record: peptide concentration of 0.5 μM.
Source text: as §1

Assay [3] addresses T1, human topoisomerase II alpha. As to the kind of experiment: decatenation of kinetoplast DNA, topoisomerase II activity assay. Type of assay: biochemical. Particulars: peptide concentration of 0.5 μM.
Source text: as §1

Assay [4] deals with T2, topoisomerase II of yeast. The assay is described as above. It counts as biochemical. The settings on record: peptide concentration of 0.5 μM.
Source text: as §1

T1 sequence (P11388 whole entry): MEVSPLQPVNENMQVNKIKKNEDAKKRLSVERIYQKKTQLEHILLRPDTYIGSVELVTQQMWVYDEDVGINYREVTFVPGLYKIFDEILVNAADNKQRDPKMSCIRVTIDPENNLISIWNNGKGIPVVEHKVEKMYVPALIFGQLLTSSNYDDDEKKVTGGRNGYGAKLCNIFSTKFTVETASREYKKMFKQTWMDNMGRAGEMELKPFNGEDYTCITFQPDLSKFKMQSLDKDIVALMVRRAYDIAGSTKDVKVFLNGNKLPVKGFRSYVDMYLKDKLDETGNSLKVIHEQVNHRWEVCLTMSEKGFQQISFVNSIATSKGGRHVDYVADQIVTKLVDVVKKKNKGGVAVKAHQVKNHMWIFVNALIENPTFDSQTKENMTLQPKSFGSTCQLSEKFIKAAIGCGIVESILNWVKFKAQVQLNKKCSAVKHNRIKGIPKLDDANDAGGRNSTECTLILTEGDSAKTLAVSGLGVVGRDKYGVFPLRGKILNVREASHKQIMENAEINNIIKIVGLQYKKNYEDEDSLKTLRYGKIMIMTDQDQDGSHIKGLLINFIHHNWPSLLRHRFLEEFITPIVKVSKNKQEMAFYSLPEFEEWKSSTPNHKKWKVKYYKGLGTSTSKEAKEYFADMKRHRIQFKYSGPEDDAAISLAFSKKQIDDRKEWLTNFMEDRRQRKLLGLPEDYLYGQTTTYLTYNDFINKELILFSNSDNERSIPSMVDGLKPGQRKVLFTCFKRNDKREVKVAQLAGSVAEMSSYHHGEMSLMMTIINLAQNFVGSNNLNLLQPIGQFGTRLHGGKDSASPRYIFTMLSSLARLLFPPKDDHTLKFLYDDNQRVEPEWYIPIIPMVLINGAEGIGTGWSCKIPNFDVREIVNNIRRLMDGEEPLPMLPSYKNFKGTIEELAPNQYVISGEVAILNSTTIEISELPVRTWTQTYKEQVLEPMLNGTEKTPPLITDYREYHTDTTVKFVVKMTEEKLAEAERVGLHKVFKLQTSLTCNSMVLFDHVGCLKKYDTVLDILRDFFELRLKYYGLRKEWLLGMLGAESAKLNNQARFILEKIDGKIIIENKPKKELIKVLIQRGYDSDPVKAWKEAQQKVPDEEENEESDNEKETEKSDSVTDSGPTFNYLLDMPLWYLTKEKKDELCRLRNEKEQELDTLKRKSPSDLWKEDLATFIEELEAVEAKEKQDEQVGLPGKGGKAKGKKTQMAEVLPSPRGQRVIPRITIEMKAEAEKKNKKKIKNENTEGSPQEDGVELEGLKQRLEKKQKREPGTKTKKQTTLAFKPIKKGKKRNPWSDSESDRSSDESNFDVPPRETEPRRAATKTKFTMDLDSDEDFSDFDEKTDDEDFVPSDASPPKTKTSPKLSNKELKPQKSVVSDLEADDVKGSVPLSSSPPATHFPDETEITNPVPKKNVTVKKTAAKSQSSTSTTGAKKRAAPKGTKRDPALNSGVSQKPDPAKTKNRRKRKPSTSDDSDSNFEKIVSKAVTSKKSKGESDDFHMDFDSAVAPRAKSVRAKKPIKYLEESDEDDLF

On to “sequence 1013 to 1041 of human topoisomerase II alpha: topoisomerase II fragment, corresponding to sequence 1013 to 1041 of human topoisomerase II alpha, described by Frére Gallois et al.”, for which, in the assay on topoisomerase II, the “inhibitory activity for topoisomerase II” value is listed as “inhibitory activity”.
Turning to “Thr-Gin-Leu-Asp-Ile-Leu-Arg-Asp-Leu-Phe-Glu-Leu-Arg -Leu-Lys-Tyr-Tyr-Gly-Leu-Arg-Lys-Glu-Phe-Leu-Leu-Gin-Met -Leu-Gly (TQLDILRDLFELRLKYYGLRKEFLLQMLG) [example 1]”, the “inhibition of topoisomerase II activity (relaxation of supercoiled plasmids)” value in assay [1] and in assay [2] was “totally inhibits” throughout. For the same substance, the “inhibition of topoisomerase II activity (decatenation of kinetoplast DNA)” value in assay [3] and in assay [4] was “totally inhibits” throughout.
